# US20180245067A1 (UNIVERSITY OF LEEDS, published 2018)
# Changes are numbered by the printed parent chain.
# B1: Ad-ySUMO 8 (designed binder)
# chain: NSLEIEELARFAVDEHNKKENALLEFVRVVKAKEQIDLTQTEIVTMYYLTLEAKDGGKKKLYEAKVWVKEPGIIPIVHNFKELQEFKPVGDA
# notes: also called clone 8
# B2: Ad-ySUMO 4 (designed binder)
# chain: NSLEIEELARFAVDEHNKKENALLEFVRVVKAKEQIDLTHSLNYTMYYLTLEAKDGGKKKLYEAKVWVKGLTNEIQKMNFKELQEFKPVGDA
# notes: also called clone 4
# B3: Ad-ySUMO 5 (designed binder)
# chain: B2 chain
# notes: also called clone 5
# B4: Ad-ySUMO 13 (designed binder)
# chain: NSLEIEELARFAVDEHNKKENALLEFVRVVKAKEQWDLTTPINITMYYLTLEAKDGGKKKLYEAKVWVKYEDYQTPMYNFKELQEFKPVGDA
# notes: also called clone 13
# B5: CEWC (other, chicken)
# chain: SEDRSRLLGAPVPVDENDEGLQRALQFAMAEYNRASNDKYSSRVVRVISAKRQLVSGIKYILQVEIGRTTCPKSSGDLQSCEFHDEPEMAKYTTCTFVVYSIPWLNQIKLLESKCQRGSHHHHHH
# notes: also called chicken egg white cystatin
# B6: Ad-ySUMO 3 (designed binder)
# chain: NSLEIEELARFAVDEHNKKENALLEFVRVVKAKEQINLMMVSPMTMYYLTLEAKDGGKKKLYEAKVWVKGIQQNPSHANFKELQEFKPVGDA
# notes: also called clone 3
# B7: Ad-ySUMO 18 (designed binder)
# chain: NSLEIEELARFAVDEHNKKENALLEFVRVVKAKEQWIDRGQYWDTMYYLTLEAKDGGKKKLYEAKVWVKIHNGYTIMDNFKELQEFKPVGDA
# notes: also called clone 18
# B8: Ad-ySUMO 14 (designed binder)
# chain: NSLEIEELARFAVDEHNKKENALLEFVRVVKAKEQWFDDEYDWITMYYLTLEAKDGGKKKLYEAKVWVKDYAATDLYWNFKELQEFKPVGDA
# notes: also called clone 14
# B9: Ad-ySUMO 7 (designed binder)
# chain: NSLEIEELARFAVDEHNKKENALLEFVRVVKAKEQWVDMDYYWRTMYYLTLEAKDGGKKKLYEAKVWVKMDEIWAEYANFKELQEFKPVGDA
# notes: also called clone 7
# B10: PHYTC57 (designed binder)
# chain: MAALLGGVRAVPGNENSLEIEELARFAVDEHNKKENALLEFVRVVKAKEQVVAGTMYYLTLEAKDGGKKKLYEAKVWVKPWETFKELQEFKPVGDARGSHHHHHH
# notes: also called consensus phytocystatin; consensus cystatin
# B11: Ad-ySUMO 2 (designed binder)
# chain: NSLEIEELARFAVDEHNKKENALLEFVRVVKAKEQIDLTNSFASTMYYLTLEAKDGGKKKLYEAKVWVKDINQYWHSMNFKELQEFKPVGDA
# notes: also called clone 2
# B12: Ad-ySUMO 12 (designed binder)
# chain: NSLEIEELARFAVDEHNKKENALLEFVRVVKAKEQWYERSENWDTMYYLTLEAKDGGKKKLYEAKVWVKRDYGFTLVPNFKELQEFKPVGDA
# notes: also called clone 12
# B13: Ad-ySUMO 6 (designed binder)
# chain: NSLEIEELARFAVDEHNKKENALLEFVRVVKAKEQIDLTEWQDRTMYYLTLEAKDGGKKKLYEAKVWVKPEPIHSHHSNFKELQEFKPVGDA
# notes: also called clone 6
# B14: Ad-ySUMO 23 (designed binder)
# chain: NSLEIEELARFAVDEHNKKENALLEFVRVVKAKEQIDLTQPHDSTMYYLTLEAKDGGKKKLYEAKVWVKPHDELNWNMNFKELQEFKPVGDA
# notes: also called clone 23
# B15: Ad-ySUMO 22 (designed binder)
# chain: B14 chain with P41S, H42F, S44M, H71I, E73S, L74N, N75F, W76T, N77G, M78T
# notes: also called clone 22
# B16: Ad-ySUMO 15 (designed binder)
# chain: B14 chain with P70Y, H71E, D72E, E73D, L74E, N75Y, N77R
# notes: also called clone 15; Yeast Sumo Adhiron 15
# B17: Ad-ySUMO 1 (designed binder)
# chain: NSLEIEELARFAVDEHNKKENALLEFVRVVKAKEQWDLTGNVDTTMYYLTLEAKDGGKKKLYEAKVWVKWDDWGERFWNFKELQEFKPVGDA
# notes: also called clone 1
# B18: Ad-ySUMO 10 (designed binder)
# chain: NSLEIEELARFAVDEHNKKENALLEFVRVVKAKEQIIIHENDADTMYYLTLEAKDGGKKKLYEAKVWVKGIMDGLNKYNFKELQEFKPVGDA
# notes: also called clone 10
# B19: Ad-ySUMO 24 (designed binder)
# chain: NSLEIEELARFAVDEHNKKENALLEFVRVVKAKEQWEDFQTHWETMYYLTLEAKDGGKKKLYEAKVWVKDVGQLLSGINFKELQEFKPVGDA
# notes: also called clone 24
# B20: Ad-ySUMO 20 (designed binder)
# chain: NSLEIEELARFAVDEHNKKENALLEFVRVVKAKEQIDLTGQWLFTMYYLTLEAKDGGKKKLYEAKVWVKPLWQYDAQYNFKELQEFKPVGDA
# notes: also called clone 20
# B21: Ad-ySUMO 19 (designed binder)
# chain: NSLEIEELARFAVDEHNKKENALLEFVRVVKAKEQWSEADNDWHTMYYLTLEAKDGGKKKLYEAKVWVKLDLETWQHFNFKELQEFKPVGDA
# notes: also called clone 19
# B22: Ad-ySUMO 9 (designed binder)
# chain: NSLEIEELARFAVDEHNKKENALLEFVRVVKAKEQIDLTDVWIDTMYYLTLEAKDGGKKKLYEAKVWVKGLMTQTNSMNFKELQEFKPVGDA
# notes: also called clone 9
# B23: OSA-IΔD86 (other)
# chain: MSSDGGPVLGGVEPVGNENDLHLVDLARFAVTEHNKKANSLLEFEKLVSVKQQVVAGTLYYFTIEVKEGDAKKLYEAKVWEKPWMFKELQEFKPVDASANARGSHHHHHH
# notes: also called OSA1ΔD86; modified oryzacystatin lacking residue Asp86
# B24: Ad-ySUMO 17 (designed binder)
# chain: NSLEIEELARFAVDEHNKKENALLEFVRVVKAKEQWYLLDVMDDTMYYLTLEAKDGGKKKLYEAKVWVKHDRRYKQAENFKELQEFKPVGDA
# notes: also called clone 17
# Columns and labels:
# [1] = target: T1, yeast Small Ubiquitin-like Modifier protein (SUMO) (yeast, UniProt Q12306 1-98 = SUMO); experiment: phage ELISA on biotinylated ySUMO
# T1 construct: also called ySUMO; yeast SUMO
# papain [2] = target: T2, papain (UniProt P00784 134-345); experiment: SPR (BIACORE 3000), cystatin on NTA chip via His tag, papain as analyte, 1:1 Langmuir fit
# T2 sequence (looked up): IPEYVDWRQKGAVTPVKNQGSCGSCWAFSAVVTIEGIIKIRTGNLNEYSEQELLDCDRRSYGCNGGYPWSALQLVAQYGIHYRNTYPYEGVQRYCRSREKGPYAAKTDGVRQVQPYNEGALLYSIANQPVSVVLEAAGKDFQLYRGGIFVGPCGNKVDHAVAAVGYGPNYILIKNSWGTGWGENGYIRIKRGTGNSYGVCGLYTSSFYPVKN
# papain [3] = target: T2, papain; experiment: cell-based or functional assay
# [4] = target: T1, yeast Small Ubiquitin-like Modifier …; experiment: BioLayer Interferometry (BLitz), biotinylated Adhiron on streptavidin biosensor, global fit
# human SUMO1 = target: T3, human SUMO1 (human, UniProt P63165 1-97); experiment: ELISA and Western blot with biotinylated Adhiron
# T3 construct: also called hSUMO1
# T3 sequence (P63165 1-97 limits assumed): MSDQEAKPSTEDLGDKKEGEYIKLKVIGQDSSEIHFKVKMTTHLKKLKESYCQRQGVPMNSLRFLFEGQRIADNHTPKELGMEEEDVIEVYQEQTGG
# T1 sequence (Q12306 1-98 limits assumed): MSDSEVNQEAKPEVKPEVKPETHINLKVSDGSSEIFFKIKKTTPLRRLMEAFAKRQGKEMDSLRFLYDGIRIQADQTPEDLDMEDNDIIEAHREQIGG
Binder,binding result [1],also measured
B1,binds,
B2,binds,
B3,binds,
B4,binds,
B5,,Ka (papain [2]): 2.6e+09 M⁻¹; Kd (papain [2]): 0.39 nM; kon (papain [2]): 1.3e+06 M⁻¹ s⁻¹
B6,binds,
B7,binds,
B8,binds,
B9,binds,
B10,,"IC50, papain inhibition assay with pGlu-Phe-Leu-p-nitroanilide (papain [3]): 4.6e-08 M; Ka (papain [2]): 1.6e+11 M⁻¹; Kd (papain [2]): 0.0063 nM; kon (papain [2]): 350000 M⁻¹ s⁻¹"
B11,binds,
B12,binds,
B13,binds,
B14,binds,
B15,,Kd [4]: 9 nM; binding result (human SUMO1): no binding
B16,,Kd [4]: 2.4 nM; binding result (human SUMO1): no binding
B17,binds,
B18,,Kd [4]: 11.5 nM; binding result (human SUMO1): no binding
B19,binds,
B20,,Kd [4]: 14.2 nM; binding result (human SUMO1): no binding
B21,binds,
B22,binds,
B23,,"IC50, papain inhibition assay with pGlu-Phe-Leu-p-nitroanilide (papain [3]): 1.8e-07 M; Ka (papain [2]): 2.1e+08 M⁻¹"
B24,binds,
